For the test, the target named is human SK4 (small-conductance Ca2+-activated K+ channel), full-length (human) (UniProt O15554). As to the kind of experiment: cryo-EM structure.
UniProt O15554, sequence (O15554 whole entry): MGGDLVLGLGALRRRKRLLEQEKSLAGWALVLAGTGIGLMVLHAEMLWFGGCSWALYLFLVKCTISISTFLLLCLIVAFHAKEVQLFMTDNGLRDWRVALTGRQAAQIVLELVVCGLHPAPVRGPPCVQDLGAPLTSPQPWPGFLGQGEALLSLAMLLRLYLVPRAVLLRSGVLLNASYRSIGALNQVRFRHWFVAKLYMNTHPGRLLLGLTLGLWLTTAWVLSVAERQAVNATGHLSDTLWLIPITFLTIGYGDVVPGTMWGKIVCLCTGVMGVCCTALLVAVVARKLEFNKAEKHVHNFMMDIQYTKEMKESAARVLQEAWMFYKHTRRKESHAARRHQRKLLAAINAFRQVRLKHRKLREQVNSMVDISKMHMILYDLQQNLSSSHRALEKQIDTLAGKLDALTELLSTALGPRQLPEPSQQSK

In turn, “calmodulin (from UniProt P0DP23 1-149) (natural protein; other documents disagree on this pair)” gave a stoichiometry N (CaMs per channel tetramer) of 4.
